Measured values published in paper PMC10491434, “SPOP targets the immune transcription factor IRF1 for proteasomal degradation” (eLife, 2023).

Molecular target: T1, wild-type interferon regulatory factor 1 (wtIRF1) (human, UniProt P10914 1-325)
T1 sequence (looked up): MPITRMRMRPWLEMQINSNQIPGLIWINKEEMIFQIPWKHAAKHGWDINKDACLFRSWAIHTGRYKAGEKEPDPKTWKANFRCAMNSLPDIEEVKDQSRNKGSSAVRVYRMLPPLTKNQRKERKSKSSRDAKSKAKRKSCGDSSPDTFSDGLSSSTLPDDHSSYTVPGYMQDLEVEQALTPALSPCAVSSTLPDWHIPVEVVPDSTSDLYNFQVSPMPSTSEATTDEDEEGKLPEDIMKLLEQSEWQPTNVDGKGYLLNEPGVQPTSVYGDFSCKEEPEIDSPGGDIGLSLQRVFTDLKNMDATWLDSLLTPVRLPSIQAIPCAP
Experiment: cell-based or functional assay

fold decrease in IRF1-driven ISRE luciferase reporter activity in HEK-293T cells with SPOP co-expression (dual luciferase assay): 11 fold
B1: Ollas-tagged wild-type speckle type BTB/POZ protein (wtSPOP) (natural protein, UniProt O43791 1-374, looked up)
chain: MSRVPSPPPPAEMSSGPVAESWCYTQIKVVKFSYMWTINNFSFCREEMGEVIKSSTFSSGANDKLKWCLRVNPKGLDEESKDYLSLYLLLVSCPKSEVRAKFKFSILNAKGEETKAMESQRAYRFVQGKDWGFKKFIRRDFLLDEANGLLPDDKLTLFCEVSVVQDSVNISGQNTMNMVKVPECRLADELGGLWENSRFTDCCLCVAGQEFQAHKAILAARSPVFSAMFEHEMEESKKNRVEINDVEPEVFKEMMCFIYTGKAPNLDKMADDLLAAADKYALERLKVMCEDALCSNLSVENAAEILILADLHSADQLKTQAVDFINYHASDVLETSGWKSMVVSHPHLVAEAYRSLASAQCPFLGPPRKRLKQS
